Results published in patent US9725702B2, “Laccase from ganoderma lucidum capable of enhancing enzymatic degradation of lignocellulolytic biomass” (DANMARKS TEKNISKE UNIVERSITET, priority 2012, dated 2017).

Columns and labels:
[1] = Michaelis constant (Km) of laccase for ABTS, Hanes-Wolf plot; type: biochemical; conditions: substrate ABTS
[2] = Temperature stability of LacGL1 laccase at pH 4.7; type: physicochemical; conditions: for activity retained: pH 4.7
Method: FIG. 9. The temperature stability profile of LacGL1 laccase as a function of LN [U/mL] vs. incubation time at pH 4.7 and 0.1 M citrate-phosphate buffer. […] The relative difference between single measurements was <5%.
FIG. 10. LacGL1 laccase stability evolution plot at optimum pH of 4.7 and two different temperature values (40° C. and 50° C.). Since the plot is a continuation of temperature stability plot (FIG. 9), the first measurement is given after 1 h. Laccase residual activity [%] is calculated based on activity value of laccase measured at pH 4.7 and 25° C. The relative difference between single measurements was <5%.
The predicted optimal conditions for the LacGL1 laccase activity were validated by measuring the effect of temperature on the relative activity of LacGL1 laccase at pH 4.7. […] (FIG. 10).

[3] = Laccase-cellulase catalyzed hydrolysis of pretreated biomass, glucose release; type: biochemical; conditions: with cellulase 1 or 2, pH 5.1, 50° C., 30 hour
Method: FIG. 15. A graphical comparison of glucose released over time during hydrolysis of pre-treated wheaty straw at pH 5.1 and 50° C. by each of commercial enzyme preparations Cellulase 1 (CC2) [A]; or Cellulase 2 [B], either alone, or in combination with a laccase enzyme; the tested laccases being respectively LacGL1 and GLlac1 (LacJooSS; Q9HG17) derived from G. lucidum; and laccases derived from Agaricus bisporus (Sigma 40452), Pleurotus ostreatus (Sigma 75117) and, Trametes versicolor (Sigma 51639).
The commercial fungal laccases were purchased as lyophilized protein samples from Sigma Aldrich. A solution of each of the above 5 laccases was prepared in a citric buffer containing 20% of glycerol (pH 5.1, 100 mM).
Two different commercially available cellulase enzyme preparations used in the comparative study were “Cellulase 1” and “Cellulase 2”, which were tested in combination with each of the laccases listed above.
The three different types of pretreated biomass used in the comparative study were sugarcane bagasse, barley straw and wheat straw. The source and pre-treatment of the sugarcane bagasse by steam explosion was as set out in Example 9. […] The composition of the dry and the pretreated biomass were determined according to the US National Renewable Energy Laboratory (NREL) procedures (Sluiter et al, 2010).
The laccase-cellulase catalyzed hydrolysis of the pretreated biomass samples to release glucose was performed as follows: Hydrolysis of 5% (w/v) samples of pretreated sugarcane bagasse, barley straw, and wheat straw biomass were assayed using an Enzyme/Substrate (E/S) ratio of 0.064% w/w for laccases and of 0.4% w/w for each commercial cellulase preparation in each hydrolysis reaction. The E/S dosage was based on the total protein concentration used, as determined using Pierce BCA (BiCinchoninic Acid) protein assay kit microplate procedure according to manufacturer's instruction (Thermo Fisher Scientific, Rockford, US). […]
Laccase and cellulase-mediated hydrolysis of the 3 biomass forms, measured as glucose release, are shown graphically in FIGS. 13, 14 and 15. […]

B1: LacGL1: Fungal laccase from Ganoderma lucidum CBS229.93 (SEQ ID NO: 5/9), recombinantly expressed in Pichia pastoris X-33 (protein, listed as Ganoderma lucidum)
chain: GIGPKTDLTISNADVAPDGYTRAAVVVNGVFPAPLITGNKGDRFQLNVIDQMTNHTMLKSTSIHWHGFFQKGTNWADGPAFINQCPISSGHSFLYDFQVPDQAGTFWYHSHLSTQYCDGLRGPFVVYDPKDPLKKLYDIDDDSTVITLTDWYHVAARLGPRFPLGSDSTLINGLGRSTTNVTADLAVINVTQGKRYRFRLVSLSCDPNYTFSIDDHNMTVIEADGIETQPVTVNAIQIFSAQRYSFVLTANQTIDNYWIRANPNFGNVGFTDGINSAILRYAGADPVEPTTSQQTTQNLLNEVDLHPFVPKRTPGQPTQGGVDTAINMVFNFNGSNFFINNASFVPPTVPVLLQILSGAQAAQDLLPSGSVYTLPVNKSIELTFPATANAPGAPHPFHLHGHAFAVVRSAGSTVYNYDNPVWRDVVSTGTPAAGDNVTIRFQTDNPGPWFLHCHIDFHLEAGFAVVFAEDPTDTSLANPVPKAWSDLCPTYDALSVDDQ
modifications: mat_peptide (1)..(499) Mature LacGL1 laccase (minus signal peptide)
- Km ([1]; laccase expressed in Ganoderma lucidum CBS229.93 (native)): 107 µM
- Km ([1]; recombinantly expressed in Pichia pastoris): 122 µM
- change of activity ([2]; 25, 40 and 50° C., pH 4.7, within an hour): did not change significantly
- laccase activity remaining ([2]; 60° C., pH 4.7, within an hour): 19%
- laccase activity remaining ([2]; 70° C., pH 4.7, within an hour): 3%
- activity retained ([2]; after 5 h at 50° C.): 23%
- activity retained ([2]; after 24 h at 40° C.): 33%
- glucose release compared to GLlac1 [3]: the same
- glucose release compared to the other tested laccases ([3]; p<0.05): significantly enhanced
